Measurements published in patent US20190359687A1 (Bayer, published 2019).

How the values were obtained:
[1] = molecular target: T1, purified human glycophorin A protein (Sigma, cat # G5017) (human, UniProt P02724 20-150); assay: ELISA, hGPA
T1 construct: mature; also called Sigma hGPA; Sigma GPA
T1 sequence (looked up): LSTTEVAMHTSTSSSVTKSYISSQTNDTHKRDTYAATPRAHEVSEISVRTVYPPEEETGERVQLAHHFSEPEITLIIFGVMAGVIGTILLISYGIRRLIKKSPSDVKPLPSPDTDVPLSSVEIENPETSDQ
Method: (§1) Hybridomas were generated from the spleen cells of these mice and these hybriomas were screened first by fluorescence activated cell sorting (FACS) against isolated human and monkey (Cynomolgus monkey and Rhesus monkey) red blood cells (RBC) and then by ELISA against purified human glycophorin A protein (GPA). Isolated RBC were prepared from whole blood from normal human, cynomolgus monkey, and beagle dog, were anticoagulant with sodium heparin (Bioreclamation). 2-3 mL of whole blood was loaded gently on the top of 3 mL Ficoll Plus (Sigma Aldrich) then centrifuged at 500 g for 20 min at room temperature (RT). The RBC pellets were washed 3 times with 10 mL of PBS, and centrifuge 400 g for 10 min at RT. RBC pellets were re-suspended in PBS at the same total volume as the original blood volume to achieve the same RBC cell density as in whole blood and stored at 4° C. Purified human glycophorin A protein was obtained from Sigma Aldrich and coated on ELISA plates at 2 ug/ml. Binding of antibodies to human GPA was detected using appropriate secondary antibodies using methods well known in the art.

dog red blood cells = molecular target: T2, dog red blood cells (dog); assay: FACS, dog RBC
T2 construct: also called dog RBC

[2] = molecular target: T3, recombinant human GPA ectodomain (human, UniProt P02724 20-91); assay: ELISA, purified IgG
T3 construct: also called recombinant hGPA ECD; recGPA
T3 sequence: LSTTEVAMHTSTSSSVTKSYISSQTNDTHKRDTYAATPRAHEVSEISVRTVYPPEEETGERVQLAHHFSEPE
Method: (§2) The “Sigma GPA” is a crude preparation of human GPA extracted from human red blood cells and is therefore representative of the highly glycosylated form of the native protein.
(§3) EC 50 values were determined from a dilution curve of the antibody. Sigma GPA is partially purified GPA extracted from human red blood cells and purchased from Sigma Chemical Company (cat # G5017), asialo hGPA is human GPA that was desialylated and ECD is the recombinantly expressed ectodomain which is the extracellular portion of GPA.

[3] = molecular target: T1, purified human glycophorin A protein …; assay: ELISA, purified IgG
Method: as §2, §3

[4] = molecular target: T4, asialo hGPA (desialylated human GPA) (human, UniProt P02724 20-150, desialylated); assay: ELISA, purified IgG
T4 construct: mature; also called asialo-GPA
T4 sequence (looked up): T1 sequence (looked up)
Method: as §2, §3

[5] = molecular target: T5, human glycophorin A in the red blood cell membrane (human, UniProt P02724 20-150); assay: FACS, hu RBC
T5 construct: whole, on cells; used for intact RBC, isolated RBC membranes and transfected cells; the assay field tells which; also called GPA; hGPA
T5 sequence (looked up): T1 sequence (looked up)
Method: as §1

[6] = molecular target: T3, recombinant human GPA ectodomain; assay: SPR, IgG
[7] = molecular target: T6, Cynomolgus monkey glycophorin A on Cynomolgus monkey red blood cells (Cynomolgus monkey); assay: FACS, Cyno RBC
T6 construct: whole, on cells; also called Cyno RBC; Cyno GPA

B1: 13G7G1/C3 (antibody, V domains shown)
VH: RVQLQQSGAELARPGASVKMSCKASGYTFTNYAMHWVKQRPGQGLEWIGYINPKSDNTNYNQKFKDKATLTTDKSSATAYMQLSSLTSDDSAVYYCQTGTRDYWGQGTTLTVSS
VL: HIVLTQSPAIMSASPGEKVTIFCSASSSITYVYWFQQKPGTSPKLWIYSTSSLPSGVPARFSGSGSGTSYSLTISRMEAEDAATYYCHQRNSYPFTFGSGTKLEIK
notes: as m8; also called TPP-3423
- EC50 [1]: 0.402 nM
- FACS signal (dog red blood cells): 1.14 relative flourescence units
- EC50 [2]: 1.43 nM
- EC50 [3]: 1.45 nM
- EC50 [4]: 1.24 nM
- FACS signal [5]: 2880 relative flourescence units
- Kd [6]: 5.3 nM
- koff [6]: 0.000405 s⁻¹
- kon [6]: 76400 M⁻¹ s⁻¹
- t½ [6]: 28.5 min
- FACS signal [7]: 294 relative flourescence units
